Results: patent US20190002534A1 (UNIVERSITY OF MASSACHUSETTS, published 2019)

Key:
Test in all cases: cell-based or functional assay
[1] = biological target: G glycoprotein of rabies virus street isolate TN410 (rabies virus, isolate TN410 (Lasiurus …))
[2] = biological target: T1, G glycoprotein of rabies virus street isolate NC SK (rabies virus, isolate NC SK (Skunk, …))
[3] = biological target: T2, G glycoprotein of rabies virus street isolate Sonora Dog (rabies virus, isolate Sonora Dog (Dog, …))
[4] = biological target: G glycoprotein of rabies virus street isolate TN33 (rabies virus, isolate TN33 (Lasiurus …))
[5] = biological target: T3, G glycoprotein of rabies virus street isolate Myotis (rabies virus, isolate Myotis (Myotis …))
[6] = biological target: T4, G glycoprotein of rabies virus street isolate WA Bat (rabies virus, isolate WA Bat …)
[7] = biological target: G glycoprotein of rabies virus street isolate AZ fox 2400 (rabies virus, isolate AZ fox 2400 (Fox …))
[8] = biological target: G glycoprotein of rabies virus street isolate VA399 (rabies virus, isolate VA399 (Lasiurus …))
[9] = biological target: T5, G glycoprotein of rabies virus street isolate C1434 (rabies virus, isolate C1434 …)
[10] = biological target: G glycoprotein of rabies virus street isolate CASK (rabies virus, isolate CASK (Skunk, U.S. …))
[11] = biological target: T6, G glycoprotein of rabies virus street isolate RAC (rabies virus, isolate RAC (Raccoon, …))
[12] = biological target: G glycoprotein of rabies virus street isolate FLBat 769 (rabies virus, isolate FLBat 769 …)
[13] = biological target: T7, G glycoprotein of rabies virus street isolate CO Bat EF6938 (rabies virus, isolate CO Bat EF6938 …)
[14] = biological target: G glycoprotein of rabies virus street isolate TN269 (rabies virus, isolate TN269 (Lasiurus …))
[15] = biological target: G glycoprotein of rabies virus street isolate 1625 Bat (rabies virus, isolate 1625 Bat …)
[16] = biological target: T8, G glycoprotein of rabies virus street isolate PR Mong (rabies virus, isolate PR Mong …)
[17] = biological target: G glycoprotein of rabies virus street isolate VA1340 (rabies virus, isolate VA1340 (Lasiurus …))
[18] = biological target: G glycoprotein of rabies virus street isolate CABat (rabies virus, isolate CABat (Myotis …))
[19] = biological target: T9, G glycoprotein of rabies virus street isolate Bat EF (rabies virus, isolate Bat EF (Eptesicus …))
[20] = biological target: T10, G glycoprotein of rabies virus street isolate AK fox (rabies virus, isolate AK fox (Fox, …))
[21] = biological target: G glycoprotein of rabies virus isolate Texas coyote 323R (rabies virus, isolate Texas coyote 323R)
[22] = biological target: G glycoprotein of rabies virus street isolate TX Fox (rabies virus, isolate TX Fox (Fox …))
[23] = biological target: G glycoprotein of rabies virus street isolate AZ Bat LC (rabies virus, isolate AZ Bat LC …)
[24] = biological target: G glycoprotein of rabies virus street isolate TN132 (rabies virus, isolate TN132 (Lasiurus …))
[25] = biological target: T11, G glycoprotein of rabies virus street isolate TX SK 4380 (rabies virus, isolate TX SK 4380 …)
[26] = biological target: G glycoprotein of rabies virus street isolate Tadarida (Test B) (rabies virus, isolate Tadarida sp. …)
[27] = biological target: G glycoprotein of rabies virus street isolate Eptesicus fuscus (Nebraska) (Test B) (rabies virus, isolate Eptesicus fuscus …)
[28] = biological target: G glycoprotein of rabies virus street isolate Raccoon (Florida) (rabies virus, isolate Raccoon (Florida))
[29] = biological target: G glycoprotein of rabies virus street isolate SW E fuscus (Test B) (rabies virus, isolate SW E fuscus …)
[30] = biological target: G glycoprotein of rabies virus street isolate Lasiurus cinereus (Arkansas) (Test B) (rabies virus, isolate Lasiurus cinereus …)
[31] = biological target: G glycoprotein of rabies virus street isolate Eastern pipistrelle (Test B) (rabies virus, isolate Eastern …)
[32] = biological target: G glycoprotein of rabies virus street isolate Gray fox (Test B) (rabies virus, isolate Gray fox (Fox …))
[33] = biological target: G glycoprotein of rabies virus street isolate Skunk (north-central) (Test B) (rabies virus, isolate Skunk …)
[34] = biological target: G glycoprotein of rabies virus street isolate Skunk south-central (Test B) (rabies virus, isolate Skunk …)
[35] = biological target: T1, G glycoprotein of rabies virus street …; remark: listed apart in the source
[36] = biological target: T2, G glycoprotein of rabies virus street …; remark: listed apart in the source
[37] = biological target: T3, G glycoprotein of rabies virus street …; remark: listed apart in the source
[38] = biological target: T4, G glycoprotein of rabies virus street …; remark: listed apart in the source
[39] = biological target: T5, G glycoprotein of rabies virus street …; remark: listed apart in the source
[40] = biological target: T6, G glycoprotein of rabies virus street …; remark: listed apart in the source
[41] = biological target: T7, G glycoprotein of rabies virus street …; remark: listed apart in the source
[42] = biological target: T8, G glycoprotein of rabies virus street …; remark: listed apart in the source
[43] = biological target: T9, G glycoprotein of rabies virus street …; remark: listed apart in the source
[44] = biological target: T10, G glycoprotein of rabies virus street …; remark: listed apart in the source
[45] = biological target: T11, G glycoprotein of rabies virus street …; remark: listed apart in the source

B1: anti-rabies virus human monoclonal antibody 17C7 (antibody, V domains shown)
VH: QVQLVESGGGVVQPGRSLRLSCAASGFTFSTYAMHWVRQAPGKGLEWVAVVSYDGRTKDYADSVKGRFTISRDNSKNTLYLQMNSLRTEDTAVYFCARERFSGAYFDYWGQGTLVTVSS
VL: EIVLTQSPATLSLSPGERATLSCRASQSVSSYLAWYQQKPGQAPRLLIYDASNRATGIPARFSGSGSGTDFTLTISSLEPEDFAVYSCQQRNNWPPTFGGGTKVEIK
- EC50 neutralization by RFFIT (Test A) [1]: 8 µg/mL
- EC50 neutralization by RFFIT (Test A) [2]: 0.8 µg/mL
- EC50 neutralization by RFFIT (Test A) [3]: 0.006 µg/mL
- EC50 neutralization by RFFIT (Test A) [4]: 9.11 µg/mL
- EC50 neutralization by RFFIT (Test A) [5]: 0.004 µg/mL
- EC50 neutralization by RFFIT (Test A) [6]: 0.87 µg/mL
- EC50 neutralization by RFFIT (Test A) [7]: 0.211 µg/mL
- EC50 neutralization by RFFIT (Test A) [8]: 21.9 µg/mL
- EC50 neutralization by RFFIT (Test A) [9]: 0.154 µg/mL
- EC50 neutralization by RFFIT (Test A) [10]: 0.006 µg/mL
- EC50 neutralization by RFFIT (Test A) [11]: 0.027 µg/mL
- EC50 neutralization by RFFIT (Test A) [12]: 80.2 µg/mL
- EC50 neutralization by RFFIT (Test A) [13]: 0.182 µg/mL
- EC50 neutralization by RFFIT (Test A) [14]: 400 µg/mL
- EC50 neutralization by RFFIT (Test A) [15]: 80 µg/mL
- EC50 neutralization by RFFIT (Test A) [16]: 0.007 µg/mL
- EC50 neutralization by RFFIT (Test A) [17]: 199 µg/mL
- EC50 neutralization by RFFIT (Test A) [18]: 0.006 µg/mL
- EC50 neutralization by RFFIT (Test A) [19]: 0.512 µg/mL
- EC50 neutralization by RFFIT (Test A) [20]: 0.005 µg/mL
- EC50 neutralization by RFFIT (Test A) [21]: 0.01 µg/mL
- EC50 neutralization by RFFIT (Test A) [22]: 0.023 µg/mL
- EC50 neutralization by RFFIT (Test A) [23]: 10 µg/mL
- EC50 neutralization by RFFIT (Test A) [24]: 414 µg/mL
- EC50 neutralization by RFFIT (Test A) [25]: 0.006 µg/mL
- EC50 neutralization by RFFIT (Test B) [26]: 1.05 µg/mL
- EC50 neutralization by RFFIT (Test B) [27]: 0.002 µg/mL
- EC50 neutralization by RFFIT (Test B) [28]: 1000 µg/mL
- EC50 neutralization by RFFIT (Test B) [29]: 675 µg/mL
- EC50 neutralization by RFFIT (Test B) [30]: 10.4 µg/mL
- EC50 neutralization by RFFIT (Test B) [31]: 143 µg/mL
- EC50 neutralization by RFFIT (Test B) [32]: 0.002 µg/mL
- EC50 neutralization by RFFIT (Test B) [33]: 7.36 µg/mL
- EC50 neutralization by RFFIT (Test B) [34]: 0.0004 µg/mL
- EC50 neutralization by RFFIT [35]: 0.8 µg/mL
- EC50 neutralization by RFFIT [36]: 0.006 µg/mL
- EC50 neutralization by RFFIT [37]: 0.004 µg/mL
- EC50 neutralization by RFFIT [38]: 0.87 µg/mL
- EC50 neutralization by RFFIT [39]: 0.154 µg/mL
- EC50 neutralization by RFFIT [40]: 0.027 µg/mL
- EC50 neutralization by RFFIT [41]: 0.182 µg/mL
- EC50 neutralization by RFFIT [42]: 0.007 µg/mL
- EC50 neutralization by RFFIT [43]: 0.512 µg/mL
- EC50 neutralization by RFFIT [44]: 0.005 µg/mL
- EC50 neutralization by RFFIT [45]: 0.006 µg/mL
